Data: article PMC6355003, “New interfaces on MiD51 for Drp1 recruitment and regulation” (PLoS ONE, 2019)

What was measured:
[1] = molecular target: the molecule itself; assay: SEC; Superdex 200 PC 3.2/20; purified Drp1 and Drp1 mutants
[2] = molecular target: the molecule itself; assay: non-reducing SDS-PAGE; purified MiD51^133-463 in the air; time course, dimer quantified every twenty-four hours; wild type and mutants compared

| Protein | binding result [1] | binding result [2] | other results |
| --- | --- | --- | --- |
| Drp1 (dynamin-related protein Drp1), wild type (natural protein, UniProt O00429-4 1-699, looked up, Drp1, GenBank NM_005690; also called wild-type Drp1; source: E. coli Rosseta (DE3), purified (Ni-NTA, anion exchange, size-exclusion chromatography)) MEALIPVINKLQDVFNTVGADIIQLPQIVVVGTQSSGKSSVLESLVGRDLLPRGTGIVTRRPLILQLVHVSQEDKRKTTGEENGVEAEEWGKFLHTKNKLYTDFDEIRQEIENETERISGNNKGVSPEPIHLKIFSPNVVNLTLVDLPGMTKVPVGDQPKDIELQIRELILRFISNPNSIILAVTAANTDMATSEALKISREVDPDGRRTLAVITKLDLMDAGTDAMDVLMGRVIPVKLGIIGVVNRSQLDINNKKSVTDSIRDEYAFLQKKYPSLANRNGTKYLARTLNRLLMHHIRDCLPELKTRINVLAAQYQSLLNSYGEPVDDKSATLLQLITKFATEYCNTIEGTAKYIETSELCGGARICYIFHETFGRTLESVDPLGGLNTIDILTAIRNATGPRPALFVPEVSFELLVKRQIKRLEEPSLRCVELVHEEMQRIIQHCSNYSTQELLRFPKLHDAIVEVVTCLLRKRLPVTNEMVHNLVAIELAYINTKHPDFADACGLMNNNIEEQRRNRLARELPSAVSRDKVASGGGGVGDGVQEPTTGNWRGMLKTSKAEELLAEEKSKPIPIMPASPQKGHAVNLLDVPVPVARKLSAREQRDCEVIERLIKSYFLIVRKNIQDSVPKAVMHFLVNHVKDTLQSELVGQLYKSSLLDDLLTESEDMAQRRKEAADMLKALQGASQIIAEIRETHLW | binds | – | – |
| Drp1 S600D (natural protein, UniProt O00429-4 1-699, looked up, Drp1, GenBank NM_005690; S600 is S637 in Drp1 isoform 1 (printed); also called phosphorylation site mutant (related to S637 in Drp1 isoform 1); source: E. coli Rosseta (DE3), purified (Ni-NTA, anion exchange, size-exclusion chromatography)) MEALIPVINKLQDVFNTVGADIIQLPQIVVVGTQSSGKSSVLESLVGRDLLPRGTGIVTRRPLILQLVHVSQEDKRKTTGEENGVEAEEWGKFLHTKNKLYTDFDEIRQEIENETERISGNNKGVSPEPIHLKIFSPNVVNLTLVDLPGMTKVPVGDQPKDIELQIRELILRFISNPNSIILAVTAANTDMATSEALKISREVDPDGRRTLAVITKLDLMDAGTDAMDVLMGRVIPVKLGIIGVVNRSQLDINNKKSVTDSIRDEYAFLQKKYPSLANRNGTKYLARTLNRLLMHHIRDCLPELKTRINVLAAQYQSLLNSYGEPVDDKSATLLQLITKFATEYCNTIEGTAKYIETSELCGGARICYIFHETFGRTLESVDPLGGLNTIDILTAIRNATGPRPALFVPEVSFELLVKRQIKRLEEPSLRCVELVHEEMQRIIQHCSNYSTQELLRFPKLHDAIVEVVTCLLRKRLPVTNEMVHNLVAIELAYINTKHPDFADACGLMNNNIEEQRRNRLARELPSAVSRDKVASGGGGVGDGVQEPTTGNWRGMLKTSKAEELLAEEKSKPIPIMPASPQKGHAVNLLDVPVPVARKLDAREQRDCEVIERLIKSYFLIVRKNIQDSVPKAVMHFLVNHVKDTLQSELVGQLYKSSLLDDLLTESEDMAQRRKEAADMLKALQGASQIIAEIRETHLW | binds | – | – |
| Drp1 K38A (natural protein, UniProt O00429-4 1-699, looked up, Drp1, GenBank NM_005690; also called K38A mutant of Drp1; dominant-negative GTPase mutation K38A; source: E. coli Rosseta (DE3), purified (Ni-NTA, anion exchange, size-exclusion chromatography)) MEALIPVINKLQDVFNTVGADIIQLPQIVVVGTQSSGASSVLESLVGRDLLPRGTGIVTRRPLILQLVHVSQEDKRKTTGEENGVEAEEWGKFLHTKNKLYTDFDEIRQEIENETERISGNNKGVSPEPIHLKIFSPNVVNLTLVDLPGMTKVPVGDQPKDIELQIRELILRFISNPNSIILAVTAANTDMATSEALKISREVDPDGRRTLAVITKLDLMDAGTDAMDVLMGRVIPVKLGIIGVVNRSQLDINNKKSVTDSIRDEYAFLQKKYPSLANRNGTKYLARTLNRLLMHHIRDCLPELKTRINVLAAQYQSLLNSYGEPVDDKSATLLQLITKFATEYCNTIEGTAKYIETSELCGGARICYIFHETFGRTLESVDPLGGLNTIDILTAIRNATGPRPALFVPEVSFELLVKRQIKRLEEPSLRCVELVHEEMQRIIQHCSNYSTQELLRFPKLHDAIVEVVTCLLRKRLPVTNEMVHNLVAIELAYINTKHPDFADACGLMNNNIEEQRRNRLARELPSAVSRDKVASGGGGVGDGVQEPTTGNWRGMLKTSKAEELLAEEKSKPIPIMPASPQKGHAVNLLDVPVPVARKLSAREQRDCEVIERLIKSYFLIVRKNIQDSVPKAVMHFLVNHVKDTLQSELVGQLYKSSLLDDLLTESEDMAQRRKEAADMLKALQGASQIIAEIRETHLW | binds | – | – |
| Drp1 S579D (natural protein, UniProt O00429-4 1-699, looked up, Drp1, GenBank NM_005690; S579 is S616 in Drp1 isoform 1 (printed); also called phosphorylation site mutant (related to S616 in Drp1 isoform 1); source: E. coli Rosseta (DE3), purified (Ni-NTA, anion exchange, size-exclusion chromatography)) MEALIPVINKLQDVFNTVGADIIQLPQIVVVGTQSSGKSSVLESLVGRDLLPRGTGIVTRRPLILQLVHVSQEDKRKTTGEENGVEAEEWGKFLHTKNKLYTDFDEIRQEIENETERISGNNKGVSPEPIHLKIFSPNVVNLTLVDLPGMTKVPVGDQPKDIELQIRELILRFISNPNSIILAVTAANTDMATSEALKISREVDPDGRRTLAVITKLDLMDAGTDAMDVLMGRVIPVKLGIIGVVNRSQLDINNKKSVTDSIRDEYAFLQKKYPSLANRNGTKYLARTLNRLLMHHIRDCLPELKTRINVLAAQYQSLLNSYGEPVDDKSATLLQLITKFATEYCNTIEGTAKYIETSELCGGARICYIFHETFGRTLESVDPLGGLNTIDILTAIRNATGPRPALFVPEVSFELLVKRQIKRLEEPSLRCVELVHEEMQRIIQHCSNYSTQELLRFPKLHDAIVEVVTCLLRKRLPVTNEMVHNLVAIELAYINTKHPDFADACGLMNNNIEEQRRNRLARELPSAVSRDKVASGGGGVGDGVQEPTTGNWRGMLKTSKAEELLAEEKSKPIPIMPADPQKGHAVNLLDVPVPVARKLSAREQRDCEVIERLIKSYFLIVRKNIQDSVPKAVMHFLVNHVKDTLQSELVGQLYKSSLLDDLLTESEDMAQRRKEAADMLKALQGASQIIAEIRETHLW | binds | – | – |
| MiD51^133-463, wild type (protein of the dimerization assays) (domain or fragment, human, UniProt Q9NQG6-1 133-463, looked up, the His tag is called N-terminal in the methods and C-terminal in the results; source: E. coli BL21 (DE3), purified) MSLQEKLLTYYRNRAAIPAGEQARAKQAAVDICAELRSFLRAKLPDMPLRDMYLSGSLYDDLQVVTADHIQLIVPLVLEQNLWSCIPGEDTIMNVPGFFLVRRENPEYFPRGSSYWDRCVVGGYLSPKTVADTFEKVVAGSINWPAIGSLLDYVIRPAPPPEALTLEVQYERDKHLFIDFLPSVTLGDTVLVAKPHRLAQYDNLWRLSLRPAETARLRALDQADSGCRSLCLKILKAICKSTPALGHLTASQLTNVILHLAQEEADWSPDMLADRFLQALRGLISYLEAGVLPSALNPKVNLFAELTPEEIDELGYTLYCSLSEPEVLLQT | – | – | stoichiometry N [2]: 2 |
| MiD51^133-463 nucleotide binding site mutant (NBM, H201D/R342E/K368E) (domain or fragment, human, UniProt Q9NQG6-1 133-463, looked up, source: E. coli BL21 (DE3), purified) MSLQEKLLTYYRNRAAIPAGEQARAKQAAVDICAELRSFLRAKLPDMPLRDMYLSGSLYDDLQVVTADDIQLIVPLVLEQNLWSCIPGEDTIMNVPGFFLVRRENPEYFPRGSSYWDRCVVGGYLSPKTVADTFEKVVAGSINWPAIGSLLDYVIRPAPPPEALTLEVQYERDKHLFIDFLPSVTLGDTVLVAKPHRLAQYDNLWRLSLEPAETARLRALDQADSGCRSLCLKILEAICKSTPALGHLTASQLTNVILHLAQEEADWSPDMLADRFLQALRGLISYLEAGVLPSALNPKVNLFAELTPEEIDELGYTLYCSLSEPEVLLQT | – | binds | – |
| MiD51^133-463 C165S (domain or fragment, human, UniProt Q9NQG6-1 133-463, looked up, source: E. coli BL21 (DE3), purified) MSLQEKLLTYYRNRAAIPAGEQARAKQAAVDISAELRSFLRAKLPDMPLRDMYLSGSLYDDLQVVTADHIQLIVPLVLEQNLWSCIPGEDTIMNVPGFFLVRRENPEYFPRGSSYWDRCVVGGYLSPKTVADTFEKVVAGSINWPAIGSLLDYVIRPAPPPEALTLEVQYERDKHLFIDFLPSVTLGDTVLVAKPHRLAQYDNLWRLSLRPAETARLRALDQADSGCRSLCLKILKAICKSTPALGHLTASQLTNVILHLAQEEADWSPDMLADRFLQALRGLISYLEAGVLPSALNPKVNLFAELTPEEIDELGYTLYCSLSEPEVLLQT | – | binds | – |
| MiD51^133-463 supposed dimer surface mutant (SDM, R169A/R182A/D183A/Q212A/N213A) (domain or fragment, human, UniProt Q9NQG6-1 133-463, looked up, source: E. coli BL21 (DE3), purified) MSLQEKLLTYYRNRAAIPAGEQARAKQAAVDICAELASFLRAKLPDMPLAAMYLSGSLYDDLQVVTADHIQLIVPLVLEAALWSCIPGEDTIMNVPGFFLVRRENPEYFPRGSSYWDRCVVGGYLSPKTVADTFEKVVAGSINWPAIGSLLDYVIRPAPPPEALTLEVQYERDKHLFIDFLPSVTLGDTVLVAKPHRLAQYDNLWRLSLRPAETARLRALDQADSGCRSLCLKILKAICKSTPALGHLTASQLTNVILHLAQEEADWSPDMLADRFLQALRGLISYLEAGVLPSALNPKVNLFAELTPEEIDELGYTLYCSLSEPEVLLQT | – | binds | – |
